Broadly, the Kd is the constant that tells how readily two partners part at equilibrium.

Here are results for three molecules from publication PMC3785238 (Cell, 2013).

Non-standard residues stand in square brackets, D forms with d. No end group written: not given here. pT = C[C@@H](OP(=O)(O)O)[C@H](N)C(=O)O; pS = N[C@@H](COP(=O)(O)O)C(=O)O

T1: Homer1c, full-length, recombinant (UniProt Q9Z214 1-366)
T1 sequence (looked up): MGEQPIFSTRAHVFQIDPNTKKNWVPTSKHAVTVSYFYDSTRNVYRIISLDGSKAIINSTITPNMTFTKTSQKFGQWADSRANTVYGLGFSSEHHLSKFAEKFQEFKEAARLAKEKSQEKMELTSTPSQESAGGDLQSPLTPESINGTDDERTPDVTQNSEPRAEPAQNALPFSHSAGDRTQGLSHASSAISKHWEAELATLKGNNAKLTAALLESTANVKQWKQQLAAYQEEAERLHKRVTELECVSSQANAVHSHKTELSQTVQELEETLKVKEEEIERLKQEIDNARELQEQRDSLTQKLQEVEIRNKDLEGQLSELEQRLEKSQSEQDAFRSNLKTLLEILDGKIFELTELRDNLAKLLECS

B1: mGluR5 peptide spanning the Homer/Pin1 binding site, bacterially expressed, phosphorylated at T1123 and S1126 (peptide)
chain: KELVAL[pT]PP[pS]PFRD

For experiment [1], the target named is B1.
In experiment [2] the target is Homer1a, full length, recombinant. The experiment in a line: ITC + NMR titration.
The target is the same in experiment [3]. Briefly: ITC. (In general: In ITC the heat of successive injections is recorded.)
Experiment [4] concerns the target T1, Homer1c, full-length, recombinant. Briefly: ITC.

In the case of EKLPPGWEKRMSRSSGRVYYFNHITNASQWERPSG (domain or fragment, UniProt Q13526 5-39, looked up) [WW domain of Pin1], binding in experiment [1] was put at a Kd of 10700 ± 200 nM.

B1: in experiment [2], the “Kd, calc cis” value is 160 nM and the “Kd, calc trans” value is 760 nM. For the same molecule, the Kd in experiment [3] stood at 470 ± 100 nM.

On to KELVALTPP[pS]PFRD [mGluR5 peptide spanning the Homer/Pin1 binding site, bacterially expressed, phosphorylated at S1126], for which the Kd in experiment [4] is 1910 ± 190 nM. Also, in experiment [2], the “Kd, calc cis” value was 670 nM and the “Kd, calc trans” value was 2190 nM. In experiment [3], the Kd stood at 1560 ± 160 nM.
